Here are results for 1 molecule from PMC5643063, “Viral infection upregulates myostatin promoter activity in orange-spotted grouper (Epinephelus coioides)”.

The data set addresses T1, MyoD (Epinephelus coioides (orange-spotted …, UniProt D9IV55 1-269)).
T1 sequence: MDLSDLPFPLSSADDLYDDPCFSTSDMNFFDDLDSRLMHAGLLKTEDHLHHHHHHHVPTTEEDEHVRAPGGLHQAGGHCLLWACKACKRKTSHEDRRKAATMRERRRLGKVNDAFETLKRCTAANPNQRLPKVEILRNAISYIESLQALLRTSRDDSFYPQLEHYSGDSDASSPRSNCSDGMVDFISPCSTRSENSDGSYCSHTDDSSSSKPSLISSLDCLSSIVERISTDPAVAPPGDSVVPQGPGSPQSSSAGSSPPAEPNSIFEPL
Briefly: EMSA; 2 ug MyoD, increasing probe, poly[d(I-C)] 0.1 ng, 5 mM Mg2+; 20 mM HEPES pH 7.9, 50 mM KCl, 5 mM MgCl2, 0.5 mM EDTA, 5 mM DTT, 5% glycerol, 0.1 ng poly[d(I-C)], 30 min room temperature; 6.5% native PAGE 0.5X TBE. As to conditions: protein: recombinant; tags: C-terminal pET-29a His tag likely (NdeI/XhoI primers, no stop codon); chain copies: 2; label: Cy3; blunt.

B1: E-box E6 probe (E6F/E6R) (dsDNA)
DNA 1: CTGTATGTGGATCATTTGTGTCTTTGGTGG
DNA 2: CCACCAAAGACACAAATGATCCACATACAG
Take B1: the binding result is “binds”.
